Results published in patent publication US20200317736A1.

Molecular target: Multidrug transporter EmrE (Escherichia coli (strain K12)) (Escherichia coli (strain K12)) (UniProt P23895)
Experiment: cell-based or functional assay

UniProt P23895, sequence (P23895 whole entry): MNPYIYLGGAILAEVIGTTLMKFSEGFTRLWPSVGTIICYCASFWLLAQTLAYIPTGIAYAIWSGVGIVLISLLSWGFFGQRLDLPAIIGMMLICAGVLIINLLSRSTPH

Row | Substance | inhibition of ethidium bromide efflux from E. coli K12 cells (fluorescence decay), peptide 4 uM [%]
1 | M92-L99 (peptide) | 68
2 | I89-A96 (peptide) | 26
3 | A87-I94 (peptide) | 60
